B1: wild-type canine IgGB (65) mAb (antibody, part only; not given: variable domains of unnamed mAb, not shown: another chain or arm of the molecule; small tags and cut ends)
constant: ASTTAPSVFPLAPSCGSTSGSTVALACLVSGYFPEPVTVSWNSGSLTSGVHTFPSVLQSSGLYSLSSMVTVPSSRWPSETFTCNVAHPASKTKVDKPVPKRENGRVPRPPDCPKCPAPEMLGGPSVFIFPPKPKDTLLIARTPEVTCVVVDLDPEDPEVQISWFVDGKQMQTAKTQPREEQFNGTYRVVSVLPIGHQDWLKGKQFTCKVNNKALPSPIERTISKARGQAHQPSVYVLPPSREELSKNTVSLTCLIKDFFPPDIDVEWQSNGQQEPESKYRTTPPQLDEDGSYFLYSKLSVDKSRWQRGDTFICAVMHEALHNHYTQESLSHSPGK
B2: canine IgGB (65) mAb with mutation T286N (antibody, part only; not given: Variable domains, not shown: another chain or arm of the molecule)
constant: ASTTAPSVFPLAPSCGSTSGSTVALACLVSGYFPEPVTVSWNSGSLTSGVHTFPSVLQSSGLYSLSSMVTVPSSRWPSETFTCNVAHPASKTKVDKPVPKRENGRVPRPPDCPKCPAPEMLGGPSVFIFPPKPKDTLLIARTPEVTCVVVDLDPEDPEVQISWFVDGKQMQNAKTQPREEQFNGTYRVVSVLPIGHQDWLKGKQFTCKVNNKALPSPIERTISKARGQAHQPSVYVLPPSREELSKNTVSLTCLIKDFFPPDIDVEWQSNGQQEPESKYRTTPPQLDEDGSYFLYSKLSVDKSRWQRGDTFICAVMHEALHNHYTQESLSHSPGK
B3: canine IgGB (65) mAb with mutation T286Q (antibody, part only; not given: Variable domains, not shown: another chain or arm of the molecule)
constant: ASTTAPSVFPLAPSCGSTSGSTVALACLVSGYFPEPVTVSWNSGSLTSGVHTFPSVLQSSGLYSLSSMVTVPSSRWPSETFTCNVAHPASKTKVDKPVPKRENGRVPRPPDCPKCPAPEMLGGPSVFIFPPKPKDTLLIARTPEVTCVVVDLDPEDPEVQISWFVDGKQMQQAKTQPREEQFNGTYRVVSVLPIGHQDWLKGKQFTCKVNNKALPSPIERTISKARGQAHQPSVYVLPPSREELSKNTVSLTCLIKDFFPPDIDVEWQSNGQQEPESKYRTTPPQLDEDGSYFLYSKLSVDKSRWQRGDTFICAVMHEALHNHYTQESLSHSPGK
B4: canine IgGB (65) mAb with mutation T286V (antibody, part only; not given: variable domains of unnamed mAb, not shown: another chain or arm of the molecule)
constant: ASTTAPSVFPLAPSCGSTSGSTVALACLVSGYFPEPVTVSWNSGSLTSGVHTFPSVLQSSGLYSLSSMVTVPSSRWPSETFTCNVAHPASKTKVDKPVPKRENGRVPRPPDCPKCPAPEMLGGPSVFIFPPKPKDTLLIARTPEVTCVVVDLDPEDPEVQISWFVDGKQMQVAKTQPREEQFNGTYRVVSVLPIGHQDWLKGKQFTCKVNNKALPSPIERTISKARGQAHQPSVYVLPPSREELSKNTVSLTCLIKDFFPPDIDVEWQSNGQQEPESKYRTTPPQLDEDGSYFLYSKLSVDKSRWQRGDTFICAVMHEALHNHYTQESLSHSPGK
B5: canine IgGB (65) mAb with mutation T286R (antibody, part only; not given: Variable domains, not shown: another chain or arm of the molecule)
constant: ASTTAPSVFPLAPSCGSTSGSTVALACLVSGYFPEPVTVSWNSGSLTSGVHTFPSVLQSSGLYSLSSMVTVPSSRWPSETFTCNVAHPASKTKVDKPVPKRENGRVPRPPDCPKCPAPEMLGGPSVFIFPPKPKDTLLIARTPEVTCVVVDLDPEDPEVQISWFVDGKQMQRAKTQPREEQFNGTYRVVSVLPIGHQDWLKGKQFTCKVNNKALPSPIERTISKARGQAHQPSVYVLPPSREELSKNTVSLTCLIKDFFPPDIDVEWQSNGQQEPESKYRTTPPQLDEDGSYFLYSKLSVDKSRWQRGDTFICAVMHEALHNHYTQESLSHSPGK
B6: canine IgGB (65) mAb with mutation T286P (antibody, part only; not given: Variable domains, not shown: another chain or arm of the molecule)
constant: ASTTAPSVFPLAPSCGSTSGSTVALACLVSGYFPEPVTVSWNSGSLTSGVHTFPSVLQSSGLYSLSSMVTVPSSRWPSETFTCNVAHPASKTKVDKPVPKRENGRVPRPPDCPKCPAPEMLGGPSVFIFPPKPKDTLLIARTPEVTCVVVDLDPEDPEVQISWFVDGKQMQPAKTQPREEQFNGTYRVVSVLPIGHQDWLKGKQFTCKVNNKALPSPIERTISKARGQAHQPSVYVLPPSREELSKNTVSLTCLIKDFFPPDIDVEWQSNGQQEPESKYRTTPPQLDEDGSYFLYSKLSVDKSRWQRGDTFICAVMHEALHNHYTQESLSHSPGK
B7: canine IgGB (65) mAb with mutation Q311E (antibody, part only; not given: Variable domains, not shown: another chain or arm of the molecule)
constant: ASTTAPSVFPLAPSCGSTSGSTVALACLVSGYFPEPVTVSWNSGSLTSGVHTFPSVLQSSGLYSLSSMVTVPSSRWPSETFTCNVAHPASKTKVDKPVPKRENGRVPRPPDCPKCPAPEMLGGPSVFIFPPKPKDTLLIARTPEVTCVVVDLDPEDPEVQISWFVDGKQMQTAKTQPREEQFNGTYRVVSVLPIGHEDWLKGKQFTCKVNNKALPSPIERTISKARGQAHQPSVYVLPPSREELSKNTVSLTCLIKDFFPPDIDVEWQSNGQQEPESKYRTTPPQLDEDGSYFLYSKLSVDKSRWQRGDTFICAVMHEALHNHYTQESLSHSPGK
B8: canine IgGB (65) mAb with mutation Q311C (antibody, part only; not given: Variable domains, not shown: another chain or arm of the molecule)
constant: ASTTAPSVFPLAPSCGSTSGSTVALACLVSGYFPEPVTVSWNSGSLTSGVHTFPSVLQSSGLYSLSSMVTVPSSRWPSETFTCNVAHPASKTKVDKPVPKRENGRVPRPPDCPKCPAPEMLGGPSVFIFPPKPKDTLLIARTPEVTCVVVDLDPEDPEVQISWFVDGKQMQTAKTQPREEQFNGTYRVVSVLPIGHCDWLKGKQFTCKVNNKALPSPIERTISKARGQAHQPSVYVLPPSREELSKNTVSLTCLIKDFFPPDIDVEWQSNGQQEPESKYRTTPPQLDEDGSYFLYSKLSVDKSRWQRGDTFICAVMHEALHNHYTQESLSHSPGK
B9: canine IgGB (65) mAb with mutation Q311F (antibody, part only; not given: Variable domains, not shown: another chain or arm of the molecule)
constant: ASTTAPSVFPLAPSCGSTSGSTVALACLVSGYFPEPVTVSWNSGSLTSGVHTFPSVLQSSGLYSLSSMVTVPSSRWPSETFTCNVAHPASKTKVDKPVPKRENGRVPRPPDCPKCPAPEMLGGPSVFIFPPKPKDTLLIARTPEVTCVVVDLDPEDPEVQISWFVDGKQMQTAKTQPREEQFNGTYRVVSVLPIGHFDWLKGKQFTCKVNNKALPSPIERTISKARGQAHQPSVYVLPPSREELSKNTVSLTCLIKDFFPPDIDVEWQSNGQQEPESKYRTTPPQLDEDGSYFLYSKLSVDKSRWQRGDTFICAVMHEALHNHYTQESLSHSPGK
B10: canine IgGB (65) mAb with mutation T286S (antibody, part only; not given: Variable domains, not shown: another chain or arm of the molecule)
constant: ASTTAPSVFPLAPSCGSTSGSTVALACLVSGYFPEPVTVSWNSGSLTSGVHTFPSVLQSSGLYSLSSMVTVPSSRWPSETFTCNVAHPASKTKVDKPVPKRENGRVPRPPDCPKCPAPEMLGGPSVFIFPPKPKDTLLIARTPEVTCVVVDLDPEDPEVQISWFVDGKQMQSAKTQPREEQFNGTYRVVSVLPIGHQDWLKGKQFTCKVNNKALPSPIERTISKARGQAHQPSVYVLPPSREELSKNTVSLTCLIKDFFPPDIDVEWQSNGQQEPESKYRTTPPQLDEDGSYFLYSKLSVDKSRWQRGDTFICAVMHEALHNHYTQESLSHSPGK
B11: canine IgGB (65) mAb with mutation Q311D (antibody, part only; not given: Variable domains, not shown: another chain or arm of the molecule)
constant: ASTTAPSVFPLAPSCGSTSGSTVALACLVSGYFPEPVTVSWNSGSLTSGVHTFPSVLQSSGLYSLSSMVTVPSSRWPSETFTCNVAHPASKTKVDKPVPKRENGRVPRPPDCPKCPAPEMLGGPSVFIFPPKPKDTLLIARTPEVTCVVVDLDPEDPEVQISWFVDGKQMQTAKTQPREEQFNGTYRVVSVLPIGHDDWLKGKQFTCKVNNKALPSPIERTISKARGQAHQPSVYVLPPSREELSKNTVSLTCLIKDFFPPDIDVEWQSNGQQEPESKYRTTPPQLDEDGSYFLYSKLSVDKSRWQRGDTFICAVMHEALHNHYTQESLSHSPGK

Broadly, the Kd is the concentration at which binding is half-saturated.

In this test the target is canine FcRn complex (FcRn-alpha subunit and beta-microglobulin), His-tagged, biotin labeled (canine). The test is described as follows: SPR (Biacore), biotin-FcRn captured on SA surface, IgG flowed over, pH 6, 15 C. A general note: SPR reads the build-up and loss of mass on a sensor chip optically.
B1: the equilibrium dissociation constant (Kd) turned out to be 30.7 nM.

The molecule B2 returned a Kd of 6.32 nM.

In the case of B3, the dissociation constant Kd was determined as 8.58 nM.

B4 came in with an equilibrium dissociation constant (Kd) of 8.36 nM.

Turning to B5, the Kd was determined as 4.73 nM.

B6 yielded an equilibrium dissociation constant (Kd) of 6.73 nM.

B7: the Kd was 9.39 nM.

Turning to B8, the Kd stood at 10.3 nM.

The molecule B9 returned a Kd of 33 nM.

Regarding B10, the Kd worked out at 6.68 nM.

Molecule B11 registered a dissociation constant Kd of 13.3 nM.

For the origin of these results see US20260139055A1.
